Results as given in patent publication US20250277054A1 (WUXI BIOLOGICS IRELAND, published 2025).
Like-named read-outs stand apart in the source and are kept apart here.

What was measured:
[1] = target: T1, human PSMA on human prostate cancer cells (LNCaP, C4-2, 22Rv1) (human, UniProt Q04609 1-750); assay: cell-based or functional assay
[2] = target: T1, human PSMA on human prostate cancer …; assay: cell-based or functional assay; remark: listed apart in the source
[3] = target: T2, Human PSMA.ECD.His (Acro) (human, UniProt Q04609 44-750); assay: ELISA, coated human PSMA protein (His tag)
T2 construct: extracellular domain; Bought protein with His tag; also called human PSMA ECD protein; Human PSMA/FOLH1 protein, His tag
T2 sequence (Q04609 44-750): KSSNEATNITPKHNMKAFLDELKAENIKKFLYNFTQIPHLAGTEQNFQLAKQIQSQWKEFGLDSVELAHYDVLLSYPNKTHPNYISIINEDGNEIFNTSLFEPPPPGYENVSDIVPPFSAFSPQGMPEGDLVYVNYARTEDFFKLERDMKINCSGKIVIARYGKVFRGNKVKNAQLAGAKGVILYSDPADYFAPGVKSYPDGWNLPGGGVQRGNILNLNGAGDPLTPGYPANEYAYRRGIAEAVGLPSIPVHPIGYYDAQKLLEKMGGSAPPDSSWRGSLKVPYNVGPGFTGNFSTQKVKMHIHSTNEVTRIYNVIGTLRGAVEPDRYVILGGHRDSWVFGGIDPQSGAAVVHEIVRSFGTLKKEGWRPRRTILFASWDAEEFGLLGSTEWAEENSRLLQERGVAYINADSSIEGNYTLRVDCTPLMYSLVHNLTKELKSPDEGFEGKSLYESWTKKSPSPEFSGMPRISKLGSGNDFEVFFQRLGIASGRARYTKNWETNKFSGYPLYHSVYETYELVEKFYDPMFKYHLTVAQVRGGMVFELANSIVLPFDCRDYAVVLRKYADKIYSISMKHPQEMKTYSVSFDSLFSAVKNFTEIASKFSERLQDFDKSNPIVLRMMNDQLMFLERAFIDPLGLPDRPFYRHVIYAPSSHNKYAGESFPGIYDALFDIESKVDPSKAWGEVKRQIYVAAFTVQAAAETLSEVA
Method: (§1) Briefly, 1 μg/mL human PSMA protein (His tag) were coated onto wells in ELISA plate in coating buffer at 4° C. for 16 hours. After washing the plate with 1×PBST once, the plate was blocked by using 200 μL/well 2% BSA for one hour. After washing the plate for three times with 1×PBST, various concentrations of antibodies diluted in 2% BSA (5-fold serially diluted from 200 nM to 0.004096 pM) were added to the wells and the plate was incubated for one hour at ambient temperature. After washing the plate three times with 1×PBST, Goat anti-human-IgG-Fc-HRP (at 1:5000 dilution) was added into wells and incubated for one hour. After washing six times with 1×PBST, 100 μL/well of TMB substrate solution was added into wells and incubated for 5 minutes in dark and then 100 μL/well of 2M HCl was added into wells to stop the reaction. The relative light unit (RLU) was measured at OD₄₅₀ and OD₅₄₀ by SPECTRAMAX M5E. The binding EC₅₀ was calculated by GraphPad Prism 7 software by plotting antibody concentration (x-axis) versus OD₄₅₀₋₅₄₀ (y-axis) and analyzing as: Nonlinear regression (curve fit)-log (agonist) vs. response-Variable slope (four parameters).

[4] = target: T1, human PSMA on human prostate cancer …; assay: flow cytometry on 22Rv1 cells (PSMA low)
Method: (§2) After washing twice with 1×PBS/1% BSA/0.1 mM EDTA, Alexa fluor 647-labeled goat anti-human IgG Fc (at 1:500 dilution) was added and the plate was incubated at 4° C. for half an hour in dark. After washing twice with 1×PBS/1% BSA/0.1 mM EDTA, cells were re-suspended in 1×PBS/1% BSA/0.1 mM EDTA, and mean fluorescence intensity (MFI) was measured by a flow cytometer and analyzed by FLOWJO. The binding EC₅₀ was calculated by GraphPad Prism 7 software by plotting antibody concentration (x-axis) versus […] (y-axis) and analyzing as: Nonlinear regression (curve fit)-log (agonist) vs. response-Variable slope (four parameters).

[5] = target: T1, human PSMA on human prostate cancer …; assay: flow cytometry on C4-2 cells (PSMA high)
Method: as §2

[6] = target: T1, human PSMA on human prostate cancer …; assay: flow cytometry on LNCaP cells (PSMA high)
Method: as §2

[7] = target: T2, Human PSMA.ECD.His (Acro); assay: ELISA, coated human PSMA protein (His tag); remark: listed apart in the source
Method: as §1

[8] = target: T3, Mouse PSMA.ECD.His (Acro) (mouse, UniProt O35409 45-752); assay: ELISA, coated mouse PSMA protein (His tag)
T3 construct: extracellular domain; Bought protein with His tag; also called mouse PSMA protein (His tag); Mouse PSMA/FOLH1 protein, His tag
T3 sequence (O35409 45-752): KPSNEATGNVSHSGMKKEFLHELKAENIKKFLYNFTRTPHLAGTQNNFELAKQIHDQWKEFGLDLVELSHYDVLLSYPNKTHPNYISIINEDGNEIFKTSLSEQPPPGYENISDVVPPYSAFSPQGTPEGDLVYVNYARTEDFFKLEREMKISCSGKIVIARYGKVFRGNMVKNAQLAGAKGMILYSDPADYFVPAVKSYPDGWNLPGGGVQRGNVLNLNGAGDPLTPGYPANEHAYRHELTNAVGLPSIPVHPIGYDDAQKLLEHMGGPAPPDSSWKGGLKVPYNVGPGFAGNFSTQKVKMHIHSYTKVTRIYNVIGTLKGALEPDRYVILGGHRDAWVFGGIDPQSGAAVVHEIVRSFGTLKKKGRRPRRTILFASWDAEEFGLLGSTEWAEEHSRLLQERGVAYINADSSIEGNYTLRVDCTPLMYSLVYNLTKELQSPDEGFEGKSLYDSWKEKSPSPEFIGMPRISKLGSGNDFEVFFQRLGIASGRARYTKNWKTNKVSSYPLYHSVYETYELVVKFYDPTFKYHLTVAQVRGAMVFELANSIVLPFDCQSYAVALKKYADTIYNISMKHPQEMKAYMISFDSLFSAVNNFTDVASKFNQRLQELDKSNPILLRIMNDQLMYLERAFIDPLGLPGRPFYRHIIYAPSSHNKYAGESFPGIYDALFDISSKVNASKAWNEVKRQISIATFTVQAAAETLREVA
Method: (§3) Briefly, 1 μg/mL cynomolgus PSMA protein (His tag) and 2 μg/mL mouse PSMA protein (His tag) were coated onto wells in an ELISA plate in coating buffer at 4° C. for 16 hours. After washing plate with 1×PBST once, the plate was blocked by using 200 μL/well 2% BSA for one hour. […] After washing three times with 1×PBST, Goat anti-human-IgG-Fc-HRP (at 1:5000 dilution) was added and incubated for one hour. After washing six times with 1×PBST, 100 μL/well of TMB substrate solution was added into wells and incubated for 5 minutes in dark and then 100 μL/well of 2M HCL were added into wells to stop the reaction. The relative light unit (RLU) was measured at OD₄₅₀ and OD₅₄₀ by SPECTRAMAX M5E. EC₅₀ was determined as described above.

[9] = target: T4, full-length cynomolgus PSMA on Flp-in CHO cells (WBP3xx042-FlpinCHO.cPro1.B7) (cynomolgus, UniProt A0A2K5VNZ0 1-750); assay: flow cytometry on FlpInCHO-cyno PSMA cells
T4 construct: whole, on cells; also called Cyno PSMA+ CHO cells; FlpInCHO-cyno PSMA
Method: WBP3xx042-FlpinCHO.cPro1.B7 (5×10⁴ cells) was incubated with various concentrations of antibodies 4° C. for one hour. After washing twice with 1×PBS/1% BSA/0.1 mM EDTA, secondary antibody, Alexa fluor 647-labeled goat anti-human IgG Fc, was added and the plate was incubated at 4° C. for half an hour in dark. After washing twice with 1×PBS/1% BSA/0.1 mM EDTA, cells were re-suspended in 1×PBS/1% BSA/0.1 mM EDTA. MFI and EC₅₀ were determined as described above.

Cyno PSMA.ECD.His (Acro) [10] = target: T5, Cyno PSMA.ECD.His (Acro) (cynomolgus, UniProt A0A2K5VNZ0 44-750); assay: ELISA, coated cynomolgus PSMA protein (His tag)
T5 construct: extracellular domain; Bought protein with His tag; also called cynomolgus PSMA ECD protein; Cynomolgus PSMA/FOLH1 protein, His tag
Method: as §3

Cyno PSMA.ECD.His (Acro) [11] = target: T5, Cyno PSMA.ECD.His (Acro); assay: ELISA, coated cynomolgus PSMA protein (His tag); remark: listed apart in the source
Method: as §3

[12] = target: T6, Human CD3δ & CD3ε heterodimer protein (Flag & His Tag) (human, UniProt P04234 22-105; P07766 23-126); assay: SPR (Biacore 8K), antibody captured by anti-human IgG Fc, CD3δ & CD3ε heterodimer injected, 1:1 model
T6 construct: Bought heterodimer with Flag and His tags
T6 sequence (P04234 22-105, stated change not applied, form in doubt, chain 1 of 2): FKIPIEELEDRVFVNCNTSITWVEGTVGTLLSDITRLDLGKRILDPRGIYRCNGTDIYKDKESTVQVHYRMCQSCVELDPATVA
T6 sequence (P07766 23-126, stated change not applied, form in doubt, chain 2 of 2): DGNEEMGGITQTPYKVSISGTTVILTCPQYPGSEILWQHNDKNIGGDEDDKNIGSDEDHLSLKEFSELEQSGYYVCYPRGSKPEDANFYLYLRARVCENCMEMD
Method: Each antibody was captured on an anti-human IgG Fc antibody immobilized CM5 sensor chip (Cytiva). human CD3δ & CD3ε heterodimer at different concentrations were injected over the sensor chip at a flow rate of 30 μL/min for an association phase of 120 s, followed by 240 s dissociation. The chip was regenerated by 10 mM glycine (pH 1.5) after each binding cycle.
The sensorgrams of blank surface and buffer channel were subtracted from the test sensorgrams. The experimental data was fitted by 1:1 binding model. Molecular weight of 31 kDa was used to calculate the molar concentration of human CD3δ & CD3ε heterodimer.

[13] = target: T7, Biotinylated Human PSMA/FOLH1 Protein, His, Avitag (human, UniProt Q04609 44-750, biotin label (Avitag)); assay: SPR (Biacore 8K), biotinylated human PSMA captured on streptavidin chip, antibody injected, single-cycle, 1:1 model
T7 construct: Bought protein; also called Human PSMA Protein (His Tag & biotin label)
T7 sequence (Q04609 44-750 limits assumed): as the sequence (Q04609 44-750) above
Method: Biotinylated human PSMA was captured on a streptavidin-immobilized CM5 sensor chip (Cytiva). Antibodies at different concentrations were injected over the sensor chip in an injection type of single-cycle at a flow rate of 30 μL/min for an association phase of 180 s, followed by 600-3600 s dissociation. The chip was then regenerated by 10 mM glycine (pH1.5) at the last binding cycle.
The sensorgrams of the blank surface and buffer channel were subtracted from the test sensorgrams. The experimental data were fitted by 1:1 binding model.

T1 sequence (Q04609 whole entry): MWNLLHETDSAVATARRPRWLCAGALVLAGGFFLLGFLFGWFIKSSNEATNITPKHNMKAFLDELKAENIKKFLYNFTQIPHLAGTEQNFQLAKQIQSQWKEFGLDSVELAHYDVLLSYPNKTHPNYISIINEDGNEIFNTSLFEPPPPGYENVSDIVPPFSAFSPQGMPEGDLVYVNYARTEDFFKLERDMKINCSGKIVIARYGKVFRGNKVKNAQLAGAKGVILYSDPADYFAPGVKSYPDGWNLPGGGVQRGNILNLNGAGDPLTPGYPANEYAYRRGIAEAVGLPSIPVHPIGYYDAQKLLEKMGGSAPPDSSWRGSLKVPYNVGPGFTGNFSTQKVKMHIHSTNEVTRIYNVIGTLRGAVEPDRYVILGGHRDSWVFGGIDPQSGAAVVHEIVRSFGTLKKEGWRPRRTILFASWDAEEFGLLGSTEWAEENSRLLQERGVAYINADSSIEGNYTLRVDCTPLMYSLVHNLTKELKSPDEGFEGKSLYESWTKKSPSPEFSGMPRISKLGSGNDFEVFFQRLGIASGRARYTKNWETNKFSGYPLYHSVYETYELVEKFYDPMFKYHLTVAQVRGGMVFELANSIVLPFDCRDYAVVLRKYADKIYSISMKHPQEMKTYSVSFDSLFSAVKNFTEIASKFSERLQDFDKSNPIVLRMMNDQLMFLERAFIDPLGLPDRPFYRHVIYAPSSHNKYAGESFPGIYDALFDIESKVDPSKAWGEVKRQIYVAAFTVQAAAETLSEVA

B1: W308051-T3U5.E17-61.uIgG4V322 (bispecific antibody)
heavy 1: QVQLVQSGAEVKKPGSSVKVSCKASGFAFTDYYIHWVRQAPGQGLEWMGWISPGNVNTKYNENFKGRVTITADKSTSTAYMELSSLRSEDTAVYYCARDGYSLYYFDYWGQGTLVTVLEDLKNVFPPEVAVFEPSECEISHTQKATLVCLATGFYPDHVELSWWVNGKEVHSGVCTDPQPLKEQPALQDSRYALSSRLRVSATFWQNPRNHFRCQVQFYGLSENDEWTQDRAKPVTQIVSAEAWGRYGPPCPPCPAPEAAGGPSVFLFPPKPKDTLMISRTPEVTCVVVDVSQEDPEVQFNWYVDGVEVHNAKTKPREEQFNSTYRVVSVLTVLHQDWLNGKEYKCKVSNKGLPSSIEKTISKAKGQPREPQVYTLPPCQEEMTKNQVSLWCLVKGFYPSDIAVEWESNGQPENNYKTTPPVLDSDGSFFLYSRLTVDKSRWQEGNVFSCSVMHEALHNHYTQKSLSLSLG
light 1: DIVMTQSPDSLAVSLGERATINCKSSQSLLNSRTRKNYLAWYQQKPGQPPKLLIYWASTRQSGVPDRFSGSGSGTDFTLTISSLQAEDVAVYYCTQSHTLRTFGGGTKVEIKPDIQNPDPAVYQLRDSKSSDKSVCLFTDFDSQTQVSQSKDSDVYITDKCVLDMRSMDFKSNSAVAWSQKSDFACANAFQNSIIPEDTFFCS
heavy 2: EVQLVQSGAEVKKPGESLKISCKASGYSFTTYWIGWVRQMPGKGLELMGIIYPYDSDTRYSPSFQGQVTISADKSINTAYLQWSSLKASDTAMYYCARITGGYLFDYWGQGILVTVSSASTKGPSVFPLAPCSRSTSESTAALGCLVKDYFPEPVTVSWNSGALTSGVHTFPAVLQSSGLYSLSSVVTVPSSSLGTKTYTCNVDHKPSNTKVDKRVESKYGPPCPPCPAPEAAGGPSVFLFPPKPKDTLMISRTPEVTCVVVDVSQEDPEVQFNWYVDGVEVHNAKTKPREEQFNSTYRVVSVLTVLHQDWLNGKEYKCKVSNKGLPSSIEKTISKAKGQPREPQVCTLPPSQEEMTKNQVSLSCAVKGFYPSDIAVEWESNGQPENNYKTTPPVLDSDGSFFLVSRLTVDKSRWQEGNVFSCSVMHEALHNHYTQKSLSLSLG
light 2: QSALTQPPSASGSPGQSVTISCTGTSSDVGGYNYVSWYQQHPGKAPKLMIYEVTKRPSGVPDRFSGSKSGNTASLTVSGLQAEDEADYYCTSYAGSNKYVFGTGTKVTVLGQPKAAPSVTLFPPSSEELQANKATLVCLISDFYPGAVTVAWKADSSPVKAGVETTTPSKQSNNKYAASSYLSLTPEQWKSHKSYSCQVTHEGSTVEKTVAPTECS
notes: CD3xPSMA bispecific; also called WBP308051
**Q.** What does the source list for B1?
**A.** IC50 of T cell cytotoxicity, CD3+ T + C4-2 [1]: 0.082 nM; IC50 of T cell cytotoxicity, CD3+ T + LNCaP [1]: 0.037 nM; EC50 of IFN-γ release, CD3+ T + C4-2 [2]: ~0.16 nM; EC50 [3]: 0.027 nM; EC50 [4]: 0.29 nM; EC50 [5]: 1.48 nM; EC50 [6]: 0.58 nM; EC50 [7]: 0.03 nM; EC50 [8]: 1.34 nM; EC50 [9]: 3.2 nM; EC50 (Cyno PSMA.ECD.His (Acro) [10]): 0.045 nM; EC50 (Cyno PSMA.ECD.His (Acro) [11]): 0.05 nM; Kd [12]: 60.2 nM; koff [12]: 0.0331 s⁻¹; kon [12]: 550000 M⁻¹ s⁻¹; Kd [13]: 0.0158 nM; koff [13]: 1.39e-05 s⁻¹; kon [13]: 880000 M⁻¹ s⁻¹
